Measured values as given in US11110182B2, “Multifunctional RNA nanoparticles and methods for treating cancer and therapeutic resistant cancer” (University of Cincinnati, priority 2016, dated 2021).

System: BT474 cells
Experiment: MTT assay, BT474 cells
Format: cell-based, human
Method: FIG. 3A) BT474 cells were incubated with 10 μg/mL control and pRNA-HER2apt-siMED1 nanoparticles for 48 h, and MED1 mRNA level was determined by real-time PCR. FIG. 3B) BT474 cells were incubated directly with (as indicated by -) or transfected with indicated pRNAs using lipofectamine 2000. At 48 h post treatment, MED1 protein levels were determined by western blotting. FIG. 3C) BT474 cells were treated with 10 μg/mL pRNA nanoparticles for 48 h and assayed for cell viability by MTT assay. FIG. 3D) Cells were treated as above and seeded for migration, and FIG. 3E) invasion transwell assays. Scale bar: 50 μm. FIG. 3F) After pRNA treatment for 48 h, the mRNA levels of ERα target genes TFF-1, FIG. 3G) c-Myc, and FIG. 3H) cyclin D1 in BT474 cells were determined by real-time PCR.
FIG. 4A) BT474 cells were treated with pRNA nanoparticles in combination with vehicle or 1 μM 4-hydroxy-tamoxifen (4-OHT) as indicated for 48 h, and assayed for cell viability by MTT assay. […] FIG. 4E) The number of mammospheres was counted, and FIG. 4F) the mammosphere size was calculated. […]
FIG. 9A) BT474 cells were treated with different concentrations of pRNA nanoparticles as indicated for 48 h. After that, MED1 protein level was determined by western blots, and FIG. 9B) the cell viability was determined by MTT assay. […]

B1: pRNA-HER2apt-siMED1: 3-WJ pRNA nanoparticle bearing a HER2-targeting RNA aptamer and two different MED1 siRNAs; strands p1 SEQ ID NO: 3, p2 SEQ ID NO: 4 (nucleic acid)
chain 1: GGACAGUGAAAGUGAGUCAAAGGAUCAAUCAUGGCCAAAGAUGUUACUUUGAGAGCCUU
chain 2: GGCUCUCAAAGUAACAUCUAAGGCCAUGUGUAUGUGGGGGGAGGACGAUGCGGUCUGCUGUGCUUGAUAUGCCCCAGACGACUCGCCCCCCACAUACUUUGUUGAUCCAAUGACUCACUUUCACUGUCCUU
modifications: 2'-F modification; third strand may lack entry; pRNA-HER2apt-siMED1, p1; pRNA-HER2apt-siMED1, p2
What does the source list for B1?
cell growth (MTT) (BT474, 48 h, nanoparticles alone): dose-dependently inhibited; effect on tamoxifen inhibition of cell growth (BT474, in combination with 1 μM 4-hydroxy-tamoxifen, 48 h): significantly enhanced the inhibitory effects of tamoxifen
